Data taken from patent publication US20120034160A1 (AbbVie / Abbott, published 2012).
Numbering of substitutions follows the chain as printed. Blank lines part the entries; values can stand above or below the binder they belong to.

How the values were obtained:
Recombinant Human IL-17 = target: T1, Recombinant Human IL-17 (human, UniProt Q16552 20-155, limits assumed); assay: Biacore SPR; N-terminal VD
T1 construct: bought reagent
T1 sequence (looked up): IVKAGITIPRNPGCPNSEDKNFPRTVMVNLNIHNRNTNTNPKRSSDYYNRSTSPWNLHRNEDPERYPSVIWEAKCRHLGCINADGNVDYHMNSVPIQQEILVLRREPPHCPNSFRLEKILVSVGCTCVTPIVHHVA
Summary of the method: (§1)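 Reported constants are kon (M⁻¹s⁻¹), koff (s⁻¹) and KD, calculated as koff/kon from a global 1:1 Langmuir fit. Antigen at 10−200 nM was passed over antibody or DVD-Ig captured on an anti-mouse IgG Fcγ surface in HBS-EP pH 7.4 at 25° C.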

Recombinant Human IL-1β = target: T2, Recombinant Human IL-1β (human, UniProt P01584 117-269); assay: Biacore SPR; C-terminal VD
T2 construct: bought reagent; also called IL-1B
Summary of the method: as §1

Kd (Recombinant Human IL-17): 0.0034 nM
koff (Recombinant Human IL-17): 1.6e-05 s⁻¹
kon (Recombinant Human IL-17): 4.8e+06 M⁻¹ s⁻¹
Kd (Recombinant Human IL-1β): 1 nM
koff (Recombinant Human IL-1β): 0.00047 s⁻¹
kon (Recombinant Human IL-1β): 470000 M⁻¹ s⁻¹
B1: DVD1626 (bispecific antibody, human IgG1, kappa)
heavy: not shown
light: DIQMTQSPSSLSASVGDRVTITCRASSGIISYIDWFQQKPGKAPKRLIYATFDLASGVPSRFSGSGSGTDYTLTISSLQPEDFATYYCRQVGSYPETFGQGTKLEIKRTVAAPDTVVTQSPAFLSVTPGEKVTITCITSTDIDVDMNWYQQKPDQPPKLLISQGNTLRPGVPSRFSSSGSGTDFTFTISSLEAEDAATYYCLQSDNLPLTFGQGTKLEIKRTVAAPSVFIFPPSDEQLKSGTASVVCLLNNFYPREAKVQWKVDNALQSGNSQESVTEQDSKDSTYSLSSTLTLSKADYEKHKVYACEVTHQGLSSPVTKSFNRGEC
notes: DVD-Ig, outer AB273, inner AB271, linker set 3; V1 wt hIgG1, V2 kappa; also called DVD1626H; DVD1626L

Kd (Recombinant Human IL-17): 0.011 nM
koff (Recombinant Human IL-17): 4.1e-05 s⁻¹
kon (Recombinant Human IL-17): 3.7e+06 M⁻¹ s⁻¹
Kd (Recombinant Human IL-1β): 0.84 nM
koff (Recombinant Human IL-1β): 0.00046 s⁻¹
kon (Recombinant Human IL-1β): 550000 M⁻¹ s⁻¹
B2: DVD1624 (bispecific antibody, human IgG1, kappa)
heavy: not shown
light: DIQMTQSPSSLSASVGDRVTITCRASSGIISYIDWFQQKPGKAPKRLIYATFDLASGVPSRFSGSGSGTDYTLTISSLQPEDFATYYCRQVGSYPETFGQGTKLEIKRTVAAPDTQVTQSPSSLSASVGDRVTITCITSTDIDVDMNWYQQKPGKPPKLLISQGNTLRPGVPSRFSSSGSGTDFTFTISSLQPEDFATYYCLQSDNLPLTFGQGTKLEIKRTVAAPSVFIFPPSDEQLKSGTASVVCLLNNFYPREAKVQWKVDNALQSGNSQESVTEQDSKDSTYSLSSTLTLSKADYEKHKVYACEVTHQGLSSPVTKSFNRGEC
notes: DVD-Ig, outer AB273, inner AB270, linker set 3; V1 wt hIgG1, V2 kappa; also called DVD1624H; DVD1624L

Kd (Recombinant Human IL-17): 0.0055 nM
koff (Recombinant Human IL-17): 2.2e-05 s⁻¹
kon (Recombinant Human IL-17): 4e+06 M⁻¹ s⁻¹
Kd (Recombinant Human IL-1β): 1 nM
koff (Recombinant Human IL-1β): 0.00049 s⁻¹
kon (Recombinant Human IL-1β): 490000 M⁻¹ s⁻¹
B3: DVD1628 (bispecific antibody, human IgG1, kappa)
heavy: not shown
light: B2 light with D114E, Q116T
notes: DVD-Ig, outer AB273, inner AB272, linker set 3; V1 wt hIgG1, V2 kappa; also called DVD1628H; DVD1628L

Kd (Recombinant Human IL-17): 0.00046 nM
koff (Recombinant Human IL-17): 1.7e-06 s⁻¹
kon (Recombinant Human IL-17): 3.7e+06 M⁻¹ s⁻¹
Kd (Recombinant Human IL-1β): 0.16 nM
koff (Recombinant Human IL-1β): 0.00023 s⁻¹
kon (Recombinant Human IL-1β): 1.5e+06 M⁻¹ s⁻¹
B4: DVD1622 (bispecific antibody, human IgG1, kappa)
heavy: not shown
light: DIQMTQSPSSLSASVGDRVTITCRASSGIISYIDWFQQKPGKAPKRLIYATFDLASGVPSRFSGSGSGTDYTLTISSLQPEDFATYYCRQVGSYPETFGQGTKLEIKRTVAAPDIQMTQSPSSLSASVGDRVTITCRASGNIHNYLTWYQQTPGKAPKLLIYNAKTLADGVPSRFSGSGSGTDYTFTISSLQPEDIATYYCQHFWSIPYTFGQGTKLQITRTVAAPSVFIFPPSDEQLKSGTASVVCLLNNFYPREAKVQWKVDNALQSGNSQESVTEQDSKDSTYSLSSTLTLSKADYEKHKVYACEVTHQGLSSPVTKSFNRGEC
notes: V1 wt hIgG1, V2 kappa; also called DVD1622H; DVD1622L

Kd (Recombinant Human IL-17): 0.0045 nM
koff (Recombinant Human IL-17): 1.6e-05 s⁻¹
kon (Recombinant Human IL-17): 3.4e+06 M⁻¹ s⁻¹
Kd (Recombinant Human IL-1β): 0.45 nM
koff (Recombinant Human IL-1β): 7.6e-05 s⁻¹
kon (Recombinant Human IL-1β): 170000 M⁻¹ s⁻¹
B5: DVD1630 (bispecific antibody, human IgG1, kappa)
heavy: not shown
light: EIVLTQSPDFQSVTPKEKVTITCRASQDIGSELHWYQQKPDQPPKLLIKYASHSTSGVPSRFSGSGSGTDFTLTINGLEAEDAGTYYCHQTDSLPYTFGPGTKVDIKRTVAAPDIQMTQSPSSLSASVGDRVTITCRASGNIHNYLTWYQQTPGKAPKLLIYNAKTLADGVPSRFSGSGSGTDYTFTISSLQPEDIATYYCQHFWSIPYTFGQGTKLQITRTVAAPSVFIFPPSDEQLKSGTASVVCLLNNFYPREAKVQWKVDNALQSGNSQESVTEQDSKDSTYSLSSTLTLSKADYEKHKVYACEVTHQGLSSPVTKSFNRGEC
notes: V1 wt hIgG1, V2 kappa; also called DVD1630H; DVD1630L

Kd (Recombinant Human IL-17): 0.005 nM
koff (Recombinant Human IL-17): 1.6e-05 s⁻¹
kon (Recombinant Human IL-17): 3.2e+06 M⁻¹ s⁻¹
Kd (Recombinant Human IL-1β): 0.42 nM
koff (Recombinant Human IL-1β): 4.7e-05 s⁻¹
kon (Recombinant Human IL-1β): 110000 M⁻¹ s⁻¹
B6: DVD1632 (bispecific antibody, human IgG1, kappa)
heavy: not shown
light: B5 light
notes: V1 wt hIgG1, V2 kappa; also called DVD1632H; DVD1632L
